Measured values: the supplement of paper PMC10201428
± gives the standard deviation of the averaged measurements.

Legend:
[1] = system: VchCAST RNA-guided transposition machinery (E. coli BL21(DE3) host, lacZ target); assay: relative integration efficiency (T-LR orientation) vs wild-type transposon end (log2 (normalized fold change)); transposon end mutated: left end; higher = more efficient transposition
Summary of the method: (§1)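 In E. coli BL21(DE3), a T7-driven effector plasmid was paired with a pUC57 mini-transposon donor containing 1549 left-end or 1849 right-end barcoded transposon variants. Cells grew on plates with 0.1 mM IPTG at 37°C for 18 h. Relative integration efficiency was derived from Illumina reads of genomic integration junctions against input plasmids, as a log-transformed output/input barcode fold change normalised to reference barcodes.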

[2] = system: VchCAST RNA-guided transposition machinery (E. coli BL21(DE3) host, lacZ target); assay: relative integration efficiency (T-RL orientation) vs wild-type transposon end (log2 (normalized fold change)); transposon end mutated: left end; higher = more efficient transposition
Summary of the method: as §1

Row | Sequence | relative integration efficiency (log2) [1] | relative integration efficiency (log2) [2]
1 | AATGTTGTTGATGCAACCATAAAGTGATATTTACAACCATATATTGATATCTCATAATTATTTATAATCAGCAACTTAACCACAAAAACAAAACAACCATAAGTTGATATTTTTGTGAATCGAGTATTTCAGCAAAACTACTGCAGTAAGAA | -0.75 ± 1.4 | -1.85 ± 0.76
2 | AATGTTGTTGATGCAACCATAAGTTGATATTTTATAATTATTTATAATCAGCAACTTAACCACAAAACAACCATAAAATGATAATTAACAAAAGTTGGTATTCAACTATAAAATGTGAATCGAGTATTTCAGCAAAACTACTGCAGTAAGAA | -0.577 ± 0.68 | -2.57 ± 1.1
3 | AATGTTGTTGCAACCATAAAGTGATATTTAATAATTATTTATAATCAGCAACTTAACCACAAAACAACCATATATTGATATCTCACAAAACAACCATAAGTTGATATTTTTGTGAATCGAGTATTTCAGCAAAACTACTGCAGTAAGAAAGT | -1.44 ± 0.11 | -0.203 ± 0.26
4 | AATGTTGTTGATGCAACCATAAAGTGATATTTAATAATTATTTATAATCAGCAACTTAACCACAAAACAACCATATATTGATATCTCCAACCATAAGTTGATATTTTTGTGAATCGAGTATTTCAGCAAAACTACTGCAGTAAGAAAGTTAC | -1.44 ± 1.2 | -3.71 ± 1.5
5 | AATGTTGTTGATGCAACCATAAAGTGATATTTAATAATTATTTATAATCAGCAACTTAACCACAAAACAACCATATATTGATATCTCACAAAACAAAACGCCTGGTCGCGGGGGTGTCCGATCTGATTTCAGCAAAACTACTGCAGTAAGAA | -0.638 ± 1.1 | -2.27 ± 1
6 | TTTTGTGTTGAAACAACCATAAAGTGATAACAACGAATCAATTAAAATCATAGGCTTAATCGAAAAACAACCATATCTTGATATCGCATAAAACAACCATAAGTTGATATTTTTGTGAATAGGATATTCCAACCTTCATAGTTTAGTAAGAA | -0.791 ± 0.29 | 0.192 ± 0.22
7 | AATGTTGTTGATGCAACCATAAAGTGATATTTAATAATTATTTATAATCAGCAACTTAACCACAAAACACCCATAAATTGATATTGCACAAAAGTTGGTATTCAACTATAAAATGTGAATCGAGTATTTCAGCAAAACTACTGCAGTAAGAA | -0.929 ± 1.3 | -3.12 ± 1
8 | AATGTTGTTGAAACAACCATAAAGTGATAACAACGAATCAATTAAAATCATAGGCTTAATCGAAAAACAACCATATCTTGATATCGCATAAAACAACCATAAGTTGATATTTTGGTGAAAAGGATATTCCAACCTTCATAGTTTAGTAAGAA | 0.198 ± 0.12 | -0.201 ± 0.34
9 | AATGTTGTTGATGCAACCATAAAGTGATATTTATTTATGGCTAGCTCAGTCCTAGGTACAATGCTAGCAACCATATATTGATATCTCACAAAACAACCATAAGTTGATATTTTTGTGAATCGAGTATTTCAGCAAAACTACTGCAGTAAGAA | -2.71 ± 0.58 | -4.66 ± 0.6
10 | AATGTTGTTGATGCAACCATAAAGTGATATTTAATAACTTCGTATAAGGTATACTATACGAAGTTATCAACCATATATTGATATCTCACAAAACAACCATAAGTTGATATTTTTGTGAATCGAGTATTTCAGCAAAACTACTGCAGTAAGAA | -3.52 ± 1.1 | -3.34 ± 1.1
11 | AATGTTGTTGATGCAACCATATATTGATATCTCATAATTATTTATAATCAGCAACTTAACCACAAAACAACCATAAGTTGATATTTTACAAAAGTTGGTATTCAACTATAAAATGTGAATCGAGTATTTCAGCAAAACTACTGCAGTAAGAA | -1.84 ± 0.76 | -3.58 ± 1.4
12 | AATGTTGTTGATGCAACCATAAAGTGATATTTAATAATTATTTATAATCAGCAACTTAACCACAAAACAACCATATATTGATATCTCACAAAAGTTGGTATTCAACTATAAAATGTGAATCGAGTATTTCAGCAAAACTACTGCAGTAAGAA | -0.838 ± 0.94 | -2.5 ± 0.79
